Consider one protein from patent US20150329644.

Series [1] deals with T1, GST-NP.d4 (NPAC residues 152-553).
T1 chain: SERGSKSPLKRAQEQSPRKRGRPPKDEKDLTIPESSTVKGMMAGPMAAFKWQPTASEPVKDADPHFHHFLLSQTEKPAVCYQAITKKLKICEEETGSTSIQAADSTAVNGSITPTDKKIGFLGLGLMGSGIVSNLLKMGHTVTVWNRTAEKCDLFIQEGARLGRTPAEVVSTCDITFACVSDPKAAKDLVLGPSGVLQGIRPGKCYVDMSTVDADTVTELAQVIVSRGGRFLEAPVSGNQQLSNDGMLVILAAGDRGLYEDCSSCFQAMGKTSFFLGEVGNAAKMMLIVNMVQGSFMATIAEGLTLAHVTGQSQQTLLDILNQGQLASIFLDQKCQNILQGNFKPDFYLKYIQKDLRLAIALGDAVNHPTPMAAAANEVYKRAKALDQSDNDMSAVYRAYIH

Series [2] has as its target T2, GST-NP.d3 (NPAC residues 152-252, linker region).
T2 chain: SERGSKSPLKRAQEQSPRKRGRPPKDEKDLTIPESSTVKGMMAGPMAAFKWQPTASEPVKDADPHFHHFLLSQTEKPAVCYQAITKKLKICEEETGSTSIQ

The target of series [3] is T3, GST-NP.d7 (NPAC residues 152-186, containing the AT hook motif).
T3 chain: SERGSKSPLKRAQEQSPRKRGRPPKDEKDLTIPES

For series [4], the target named is T4, GST-NP.d8 (NPAC residues 188-252).
T4 chain: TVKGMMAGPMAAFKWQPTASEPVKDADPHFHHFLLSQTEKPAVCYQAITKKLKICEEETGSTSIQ

The target in series [5] is T5, GST-NP.d5 (NPAC residues 262-553, dehydrogenase domain).
T5 chain: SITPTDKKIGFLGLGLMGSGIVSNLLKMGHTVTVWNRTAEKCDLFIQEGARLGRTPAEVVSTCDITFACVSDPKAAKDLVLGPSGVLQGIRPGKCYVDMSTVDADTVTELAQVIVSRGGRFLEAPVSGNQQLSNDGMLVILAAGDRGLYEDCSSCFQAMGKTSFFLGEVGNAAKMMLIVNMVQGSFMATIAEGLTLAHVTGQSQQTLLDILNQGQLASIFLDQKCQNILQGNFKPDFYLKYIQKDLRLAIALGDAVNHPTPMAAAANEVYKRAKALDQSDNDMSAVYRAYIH

Series [6] has as its target T6, GST-NP.d2 (NPAC residues 1-252).
T6 chain: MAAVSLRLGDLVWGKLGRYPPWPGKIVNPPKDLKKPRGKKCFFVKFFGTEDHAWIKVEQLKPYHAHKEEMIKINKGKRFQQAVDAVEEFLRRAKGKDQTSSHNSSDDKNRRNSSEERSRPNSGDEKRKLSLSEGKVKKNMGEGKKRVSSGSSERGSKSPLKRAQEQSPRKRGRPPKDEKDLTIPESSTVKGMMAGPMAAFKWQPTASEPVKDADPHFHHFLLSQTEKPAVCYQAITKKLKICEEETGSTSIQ

Series [7] has as its target T7, GST-NP.d9 (NP.d3, NPAC residues 152-252, with deletion of amino acids 214-222).
T7 chain: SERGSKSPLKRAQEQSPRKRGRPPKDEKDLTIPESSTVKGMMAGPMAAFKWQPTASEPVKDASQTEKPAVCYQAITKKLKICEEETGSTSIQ

Series [8] deals with T8, GST-NP.d1 (NPAC residues 1-150, PWWP domain).
T8 chain: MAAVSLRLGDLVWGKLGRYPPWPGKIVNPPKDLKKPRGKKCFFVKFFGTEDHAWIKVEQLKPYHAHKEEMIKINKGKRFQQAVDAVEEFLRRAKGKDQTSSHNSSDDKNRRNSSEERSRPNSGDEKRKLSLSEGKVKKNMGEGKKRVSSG

The target of series [9] is T9, GST-NP.d6 (NPAC with deletion of the linker region, residues 152-252).
T9 chain: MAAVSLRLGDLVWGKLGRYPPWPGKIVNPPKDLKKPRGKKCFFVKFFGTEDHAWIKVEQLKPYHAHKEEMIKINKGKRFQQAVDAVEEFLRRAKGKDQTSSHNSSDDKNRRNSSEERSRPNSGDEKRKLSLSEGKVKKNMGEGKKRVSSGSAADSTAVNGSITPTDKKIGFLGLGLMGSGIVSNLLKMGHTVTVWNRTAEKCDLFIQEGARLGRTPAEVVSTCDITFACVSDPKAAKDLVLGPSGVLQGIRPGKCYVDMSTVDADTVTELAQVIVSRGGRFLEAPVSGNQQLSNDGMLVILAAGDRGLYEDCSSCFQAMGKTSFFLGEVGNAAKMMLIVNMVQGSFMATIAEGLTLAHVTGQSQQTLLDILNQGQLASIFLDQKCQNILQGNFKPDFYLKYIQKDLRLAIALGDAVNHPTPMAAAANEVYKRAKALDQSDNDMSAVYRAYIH

B1: Recombinant 6x his tagged full-length LSD2 (protein)
chain: HHHHHHMATPRGRTKKKASFDHSPDSLPLRSSGRQAKKKATETTDEDEDGGSEKKYRKCEKAGCTATCPVCFASASERCAKNGYTSRWYHLSCGEHFCNECFDHYYRSHKDGYDKYTTWKKIWTSNGKTEPSPKAFMADQQLPYWVQCTKPECRKWRQLTKEIQLTPQIAKTYRCGMKPNTAIKPETSDHCSLPEDLRVLEVSNHWWYSMLILPPLLKDSVAAPLLSAYYPDCVGMSPSCTSTNRAAATGNASPGKLEHSKAALSVHVPGMNRYFQPFYQPNECGKALCVRPDVMELDELYEFPEYSRDPTMYLALRNLILALWYTNCKEALTPQKCIPHIIVRGLVRIRCVQEVERILYFMTRKGLINTGVLSVGADQYLLPKDYHNKSVIIIGAGPAGLAAARQLHNFGIKVTVLEAKDRIGGRVWDDKSFKGVTVGRGAQIVNGCINNPVALMCEQLGISMHKFGERCDLIQEGGRITDPTIDKRMDFHFNALLDVVSEWRKDKTQLQDVPLGEKIEEIYKAFIKESGIQFSELEGQVLQFHLSNLEYACGSNLHQVSARSWDHNEFFAQFAGDHTLLTPGYSVIIEKLAEGLDIQLKSPVQCIDYSGDEVQVTTTDGTGYSAQKVLVTVPLALLQKGAIQFNPPLSEKKMKAINSLGAGIIEKIALQFPYRFWDSKVQGADFFGHVPPSASKRGLFAVFYDMDPQKKHSVLMSVIAGEAVASVRTLDDKQVLQQCMATLRELFKEQEVPDPTKYFVTRWSTDPWIQMAYSFVKTGGSGEAYDIIAEDIQGTVFFAGEATNRHFPQTVTGAYLSGVREASKIAAF
As to B1, the “LSD2 activity on nucleosome substrates (nucleosome demethylation assay, immunoblot)” value in series [1] is on record as “significantly enhance LSD2 demethylase activity”; in series [2], “significantly enhance LSD2 demethylase activity”; in series [5] it was “Neither the PWWP domain (SEQ ID NO: 63) (NP.d1, residues 1-150) nor the dehydrogenase domain (NP.d5, residues 262-553) stimulated LSD2”; in series [6], “significantly enhance LSD2 demethylase activity”; in [8], “Neither the PWWP domain (SEQ ID NO: 63) (NP.d1, residues 1-150) nor the dehydrogenase domain (NP.d5, residues 262-553) stimulated LSD2”; in [9], “deletion of the linker region (residues 152-252) abolishes cofactor activity (NP.d6, lane 10)”. Also, the “LSD2 histone demethylase activity on nucleosomal substrates” value was “NP.d8, but not NP.d7 or NP.d9, significantly enhances LSD2 histone demethylase activity on nucleosomal substrates” in series [3]; “NP.d8, but not NP.d7 or NP.d9, significantly enhances LSD2 histone demethylase activity on nucleosomal substrates” in series [4]; “NP.d8, but not NP.d7 or NP.d9, significantly enhances LSD2 histone demethylase activity on nucleosomal substrates” in series [7].
